From patent US20140323400A1 (ASSOCIATION FRANCAISE CONTRE LES MYOPATHIES, published 2014)
The star is where a group is joined. Biotin = O=C1N[C@H]2[C@H](CS[C@H]2CCCCC(=O)*)N1

Target: T1, mature myostatin (UniProt O08689 268-376, limits assumed)
T1 construct: mature; also called MSTN
T1 sequence (looked up): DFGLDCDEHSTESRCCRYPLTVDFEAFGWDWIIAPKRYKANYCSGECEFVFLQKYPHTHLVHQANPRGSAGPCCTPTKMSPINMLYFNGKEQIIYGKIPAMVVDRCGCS
Assay: ELISA, biotinylated peptide on coated myostatin, with or without zinc
Procedure: For this, 3 μl of myostatin at a concentration of 100 ng/μl are taken up in 50 μl of carbonate buffer and added to each well of the assay plate (R&D Systems DY990). After an overnight incubation at 4° C., the plate is washed with 100 μl of PBS-Tween (0.05% Tween 20), then the blocking step to saturate non-specific sites is carried out for 2 hours at room temperature with 100 μl of PBS and 6% of milk per well. Five successive washes with 200 μl of PBS-Tween (0.05% Tween 20) are performed and increasing amounts of biotinylated fibromodulin peptides are then deposited (100 μl final in PBS) and the plate is incubated for 1 hour at 37° C. For the positive control, an antibody of goat anti-myostatin (≠AF788, R&D Systems), which was deposited in the control wells and incubated for 1 hour at 1/100th (0.1 mg/ml) was […]. The wells were then washed 5 times with PBS-Tween (0.05% Tween 20). […] After five washes, adding the peroxidase substrate, the TMB Substrate Reagent Set (Tetramehylbenzidine, OptEIA, ≠555214) allows the obtention of a colored reaction proportional to the quantity of HRP present in the wells. The reaction is stopped after 20 minutes by addition of sulfuric acid 2N, and the plate is read at 450 nm on a Discovery HT-R spectrophotometer (Bio-TEK).

B1: Peptide Biotine-69-101 mFibromoduline mutated (Fmod mutated) (peptide)
peptide: Biotin-PPPEPRDCPQEADAPPNFPTAMYADNRNLKYLP-NH2
SMILES: CSCC[C@H](NC(=O)[C@H](C)NC(=O)[C@@H](NC(=O)[C@@H]1CCCN1C(=O)[C@H](Cc1ccccc1)NC(=O)[C@H](CC(N)=O)NC(=O)[C@@H]1CCCN1C(=O)[C@@H]1CCCN1C(=O)[C@H](C)NC(=O)[C@H](CC(=O)O)NC(=O)[C@H](C)NC(=O)[C@H](CCC(=O)O)NC(=O)[C@H](CCC(N)=O)NC(=O)[C@@H]1CCCN1C(=O)[C@H](CS)NC(=O)[C@H](CC(=O)O)NC(=O)[C@H](CCCNC(=N)N)NC(=O)[C@@H]1CCCN1C(=O)[C@H](CCC(=O)O)NC(=O)[C@@H]1CCCN1C(=O)[C@@H]1CCCN1C(=O)[C@@H]1CCCN1C(=O)CCCC[C@@H]1SC[C@@H]2NC(=O)N[C@@H]21)[C@@H](C)O)C(=O)N[C@@H](Cc1ccc(O)cc1)C(=O)N[C@@H](C)C(=O)N[C@@H](CC(=O)O)C(=O)N[C@@H](CC(N)=O)C(=O)N[C@@H](CCCNC(=N)N)C(=O)N[C@@H](CC(N)=O)C(=O)N[C@@H](CC(C)C)C(=O)N[C@@H](CCCCN)C(=O)N[C@@H](Cc1ccc(O)cc1)C(=O)N[C@@H](CC(C)C)C(=O)N1CCC[C@H]1C(N)=O
notes: also called mutated biotin mFmod peptide
B1: no binding.
